Patent US20200317768A1 (published 2020)

Molecular target: T1, human FcγRIIb extracellular domain, C-terminal His-tag (human, UniProt P31994 43-217)
T1 construct: also called humanFcgRIIb; not shown: His-tag added to C-terminus
T1 sequence: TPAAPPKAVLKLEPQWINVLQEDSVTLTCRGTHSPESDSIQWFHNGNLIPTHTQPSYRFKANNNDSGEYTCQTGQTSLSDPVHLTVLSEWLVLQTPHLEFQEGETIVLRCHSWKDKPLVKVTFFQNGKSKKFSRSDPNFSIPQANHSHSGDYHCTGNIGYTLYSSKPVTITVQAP
Experiment: SPR (BIACORE); KD of parent SG1 / KD of variant

B1: MS_M103205H795-SG1/M103202L889-SK1 (antibody, human IgG1, kappa)
heavy: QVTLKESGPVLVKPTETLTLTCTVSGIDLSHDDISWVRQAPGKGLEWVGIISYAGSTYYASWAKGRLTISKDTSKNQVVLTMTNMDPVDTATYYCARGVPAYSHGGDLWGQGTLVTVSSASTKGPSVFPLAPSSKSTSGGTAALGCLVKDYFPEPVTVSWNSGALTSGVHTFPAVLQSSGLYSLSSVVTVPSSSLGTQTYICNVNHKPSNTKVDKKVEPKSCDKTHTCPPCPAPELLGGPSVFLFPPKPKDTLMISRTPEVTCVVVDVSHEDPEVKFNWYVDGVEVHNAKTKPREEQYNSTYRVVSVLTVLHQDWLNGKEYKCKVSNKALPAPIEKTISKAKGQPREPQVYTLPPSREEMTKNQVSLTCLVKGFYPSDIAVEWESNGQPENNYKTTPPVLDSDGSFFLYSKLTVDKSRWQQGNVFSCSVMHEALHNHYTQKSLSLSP
light: DIVMTQSPATLSLSPGERATLSCTSSQSVYHANWLSWFQQKPGQPPKLLIYWASTLAYGVPSRFSGSGSGTDFTLTISSLQPEDAATYYCAGGYGGGRYAFGQGTKVEIKRTVAAPSVFIFPPSDEQLKSGTASVVCLLNNFYPREAKVQWKVDNALQSGNSQESVTEQDSKDSTYSLSSTLTLSKADYEKHKVYACEVTHQGLSSPVTKSFNRGEC
notes: Parent antibody with SG1 human heavy chain constant region; also called MS1032LO06-SG1
KD fold (SG1 = 1): 1 fold
